The target of assay [1] is recombinant soluble human CD4 (human, UniProt P01730). Put plainly: ELISA. For orientation: An ELISA detects its analyte on a solid surface through an enzyme-linked reagent.
For assay [2], the target named is recombinant soluble rhesus CD4 (Macaca mulatta (rhesus macaque), UniProt P16003). Put plainly: ELISA.

The results in this text go back to article PMC4562469 (Science translational medicine, 2014).

recombinant soluble rhesus CD4, sequence (P16003 26-396): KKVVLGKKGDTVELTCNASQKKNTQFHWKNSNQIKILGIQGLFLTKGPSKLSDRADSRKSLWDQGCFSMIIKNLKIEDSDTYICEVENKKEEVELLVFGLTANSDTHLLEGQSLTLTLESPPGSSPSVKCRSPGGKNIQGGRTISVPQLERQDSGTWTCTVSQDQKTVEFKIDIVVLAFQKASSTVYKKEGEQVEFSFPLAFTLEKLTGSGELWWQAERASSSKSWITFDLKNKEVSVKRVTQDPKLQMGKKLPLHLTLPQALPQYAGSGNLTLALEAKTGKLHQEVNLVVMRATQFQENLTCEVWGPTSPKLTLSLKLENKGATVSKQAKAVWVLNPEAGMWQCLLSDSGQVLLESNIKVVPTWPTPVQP

B1: mAb 2D5 (anti-CD4 monoclonal antibody) (antibody, V domains shown)
VH: QVKLQQSGPELKKPGETVKISCKASGYTFTDYSMHWVKQAPGKGLKWLGRINTETGEAKYVDDFMGHLAFSLETSASTAYLQINNLKNEDTATYFCARYDGYSWDAMDYWGQGTSVIVSS
VL: DIMLTQSPASLTVSLGQRATMSCRASQSVSTSRYSYMHWYQEKAGQPPQLLIKYASNLESGVPARFSGSGSGTDFTLNIHPVEAEDTATYYCQHSWEIPYTFGGGTKLEIK
As to B1, the binding result in assay [1] and in assay [2] was “binds” in each case.
